According to doi:10.1101/2025.09.11.675134, “Biodistribution-Driven Discovery Identifies a Glycosidase-Cleavable Linker to Reprogram Radiotheranostics” (bioRxiv, 2025):

Assays:
AR42J xenografts = assay: Ex vivo biodistribution of 111In-labeled variants in AR42J xenograft mice; set-up: species or system athymic nude mice; details: AR42J xenografts, 1 h post-injection
Method: For studies involving three variants (DOTA -TATE, DOTA-MVK(ε)-TATE, and DOTA-β-Gal-TATE), AR42J cells (5 × 10^6 cells per mouse) were subcutaneously inoculated into the right shoulder of the mice. Tumors were allowed to grow for 3 weeks, reaching a volume of 100 –200 mm³ before being used in subsequent experiments. For biodistribution or PET imaging studies, mice bearing subcutaneous AR42J tumors were administered 1.4 – 1.8 MBq (1 μg) of 111In-labeled DOTA-TATE variants or 2.7 – 4.9 MBq (1 μg) of 86Y-labeled DOTA-TATE variants via tail vein injection. Biodistribution studies with 111In-labeled DOTA -TATE variants were performed 1 hour post -injection (n = 3 per cohort), while studies with 86Y-labeled DOTA-TATE variants were conducted at 1, 4, and 24 hours post -injection (n = 3 per cohort). Mice were euthanized by CO2 asphyxiation, and 10 tissues, including tumors, were collected. All samples were weighed and counted on a gamma counter (2480 Wizard 3, Perkin Elmer Inc., Waltham, MA, USA). Results are presented as percentage of injected activity per gram (%IA/g) and mean values ± standard deviations. […]

[1] = Blood chemistry and complete blood count during therapy; type: in vivo, athymic nu/nu mice; details: one cycle of 225Ac treatment (148 kBq), blood at 0, 10 and 31 days, VetScan HM5
Source text: Blood samples were collected at multiple timepoints during therapy studies and analyzed to assess toxicity (Fig. S25). Biochemical parameters of liver (e.g. alanine aminotransferase, bilirubin) and renal (blood urea nitrogen, and creatinine) toxicity remained mostly within normal limits across all groups. […] These findings further support the favorable tolerability profiles of the cleavable linker constructs.
Additionally, a basic metabolic panel (BMP) and complete blood count (CBC) analysis were performed to monitor hematological parameters and potential treatment-related toxicity. For the one-cycle therapy cohort, blood was collected at 0-, 10-, and 31-days post-treatment, whereas for the two-cycle therapy cohort, blood was collected at 10 days, 3 months, and 6 months post-treatment. Samples were obtained retro-orbitally into potassium EDTA-coated tubes and analyzed using the Vetscan VS2 (Abaxis, Union City, CA, USA) and VetScan HM5 hematology analyzer (Abaxis). Although these instruments provide species-specific reference intervals, manufacturer-supplied ranges may not fully reflect our study cohort. […] The following parameters were assessed and compared: alanine transaminase (ALT, U/L), total bilirubin (TBIL, μmol/L), creatinine (CRE, μmol/L), blood urea nitrogen (BUN, mmol/L), total white blood cell count (WBC, 10^9/L), hemoglobin (HGB, g/dL), and platelets (PLT, 10^9/L).

| Structure (SMILES) | Improvement of T/K ratio over DOTA-TATE (AR42J xenografts) [fold] | Increase in tumor uptake compared to DOTA-TATE (AR42J xenografts) | Reduction in kidney retention compared to DOTA-TATE (AR42J xenografts) | White blood cell counts [1] |
| --- | --- | --- | --- | --- |
| C[C@@H](O)[C@H](NC(=O)[C@@H]1CSSC[C@H](NC(=O)[C@@H](Cc2ccccc2)NC(=O)CCCC(=O)Nc2cc(COC(=O)N(C)CCNC(=O)CN3CCN(CC(=O)O)CCN(CC(=O)O)CCN(CC(=O)O)CC3)ccc2O[C@@H]2O[C@H](CO)[C@H](O)[C@H](O)[C@H]2O)C(=O)N[C@@H](Cc2ccc(O)cc2)C(=O)N[C@H](Cc2c[nH]c3ccccc23)C(=O)N[C@@H](CCCCN)C(=O)N[C@@H]([C@@H](C)O)C(=O)N1)C(=O)O [^111In-DOTA-β-Gal-TATE, metal not drawn] | 2.7 | ~ 90% | ~ 29% | – |
| C[C@@H](O)[C@H](NC(=O)[C@@H]1CSSC[C@H](NC(=O)[C@@H](Cc2ccccc2)NC(=O)CCCC(=O)Nc2cc(COC(=O)N(C)CCNC(=O)CN3CCN(CC(=O)O)CCN(CC(=O)O)CCN(CC(=O)O)CC3)ccc2O[C@@H]2O[C@H](CO)[C@H](O)[C@H](O)[C@H]2O)C(=O)N[C@@H](Cc2ccc(O)cc2)C(=O)N[C@H](Cc2c[nH]c3ccccc23)C(=O)N[C@@H](CCCCN)C(=O)N[C@@H]([C@@H](C)O)C(=O)N1)C(=O)O [^225Ac-DOTA-β-Gal-TATE, metal not drawn] | – | – | – | transient decrease following one cycle of ^225Ac treatment that recovered at later time points |
